# “Also recorded” adds a separate entry of the source.
# B1: ranpirnase (protein, UniProt P22069 1-104, looked up)
# Protein P-30: QDWLTFQKKHITNTRDVDCDNIMSTNLFHCKDKNTFIYSRPEPVKAICKGIIASKNVLTTSEFYLSDCNVTSRPCKYKLKKSTNKFCVTCENQAPVHFVGVGSC
# notes: RNase extracted from Rana pipiens, the Northern leopard frog; registered trademark name ONCONASE™
# Legend:
# [1] = test system: NCI-H292 lung cancer cell line; assay: MTS viability of cells transfected with siFra-1 or scramble control (siC); type: cell-based, human; settings: 48 h
# Experimental: Assays were performed on 96-well microtiter plates after plating of 7.7×10^4 cells/well. […] Cell viability was measured by the colorimetric methoxy-tetrazolium salt (MTS) Assay, CellTiter 96 Aqueous One Solution Cell Proliferation Assay (Promega), per the manufacturer's recommendations. MTS is a tetrazolium salt that undergoes a color change caused by its bioreduction of MTS into a water-soluble formazan. The conversion of MTS into the aqueous-soluble formazan is accomplished by dehydrogenase enzymes found in active mitochondria, with reaction occurring only in living cells. The quantity of formazan product measured by the amount of 490-nm light absorbance is directly proportional to the number of living cells in culture. Briefly, 20 μl of MTS reagent was added per well, and plates incubated at 37° C. for 2-3 h. Finally, the absorbance of each well was read at 490 nm and 650 nm. ΔOD from these two wavelengths were reported as the corrected viability. Fold changes were calculated with respect to the control as a measure of cell viability.
# siFra-1 RNA interference (RNAi) duplexes were constructed from sequence information on mature mRNA extracted from the EST database available through the National Center for Biotechnology Information internet site using the open frame region from the cDNA sequence of exon 2 of the Fra-1 gene. The siRNA pool sequences targeting Fra-1 corresponded to the 107-126, 124-143, 230-249 coding regions relative to the first nucleotide of the start codon. The sequences were BLAST-searched (NCBI database) against EST libraries to ensure the specificity of the siRNA molecule. The siRNA duplexes or a scramble control were transfected into cancer lines using Lipofectamine 2000 (Invitrogen) as recommended by the manufacturer. Cells were incubated with complexes overnight, and the medium was replaced the next day. Cells were allowed to recover for 48 hours before treatments.
# Cells were transfected with siFra-1 or scramble control (siC) and left to rest for 48 h before treatment. […] The PPARγ inhibitor GW9662 (2 μM) was added to observe the influence of PPARγ.
# [2] = i.v. 2.5 mg/kg, twice a week for 2 weeks; previous studies, personal communication; cited from earlier work
Molecule,influence of PPARγ antagonist on the synergistic effect of ranpirnase and rosiglitazone ([1]; GW9662 2 μM added to the combination),apoptosis induction in vivo [2],toxicity to the animals [2],"effect of Fra-1 knock-down (siFra-1 vs siC) on efficacy / cell killing of the single drug ([1]; ranpirnase 0.1, 1 or 10 μg/mL, rosiglitazone 10 or 20 μM)","cell viability (MTS) ([1]; ranpirnase 0.1, 1 or 10 μg/mL)"
"O=C(Nc1ccccc1)c1cc([N+](=O)[O-])ccc1Cl [GW9662, reference compound]",did not significantly modify the synergistic effect of ranpirnase and rosiglitazone,–,–,–,–
B1,–,effective in producing apoptosis,non-toxic to the animals,"significantly increased the efficacy of ranpirnase alone at all concentrations; also recorded: increases cell killing by ranpirnase (0.1, 1, or 10 μg/mL) in a concentration-dependent manner",reduced viability in a dose-dependent manner
